Publication PMC8748714 (2022)

B1: unnamed (parent)
chain 1: HSQGTFTSDYSKYLDSRRAQDFVQWLMNTKRNRNNIA
chain 2: RPQGATVSLWETVQKWREYRRQCQRSLTEDPPPATDLFCNRTFDEYACWPDGEPGSFVNVSCPWYLPWASSVPQGHVYRFCTAEGLWLQKDNSSLPWRDLSECEESKRGERSSPEEQLLFLYIIYTVGYALSFSALVIASAILLGFRHLHCTRNYIHLNLFASFILRALSVFIKDAALKWMYSTAAQQHQWDGLLSYQDSLSCRLVFLLMQYCVAANYYWLLVEGVYLYTLLAFSVLSEQWIFRLYVSIGWGVPLLFVVPWGIVKYLYEDEGCWTRNSNMNYWLIIRLPILFAIGVNFLIFVRVICIVVSKLKANLMCKTDIKCRLAKSTLTLIPLLGTHEVIFAFVMDEHARGTLRFIKLFTELSFTSFQGLMVAILYCFVNNEVQLEFRKSWERWRLEHLHIQRDSSMKPLKCPTSSLSSGATAGSSMYTATCQASCS

Variants of: B1
Assay: radioligand competition binding on whole cells
Conditions: with partner chain of the complex shown;; read off a plot

Compared with chain 2 R167A, chain 2 W274A is lower in log10 ratio: 0.1 pIC50 ΔWT for the first, -0.4 pIC50 ΔWT for the second.

chain 2 N217A and chain 2 E341A are the same in log10 ratio: 0.3 pIC50 ΔWT for the first, 0.3 pIC50 ΔWT for the second.

Variant chain 2 K174A has a log10 ratio of -1.9 pIC50 ΔWT.

Variants of: B1
Assay: radioligand competition binding on whole cells
Conditions: with partner chain of the complex shown;; read off a plot
Remark: another data set of the same source

First: chain 2 E364A
Second: chain 2 W274A
The log10 ratio of the first is lower: -0.85 pIC50 ΔWT for the first, -0.3 pIC50 ΔWT for the second.
